From patent publication US20120039879A1

Key:
ROBO1 [1] = biological target: ROBO1 (UniProt Q9Y6N7); assay: ITC, compared with the scFv alone
ROBO1 [2] = biological target: ROBO1 (UniProt Q9Y6N7); assay: ITC, ROBO1 titrated into B5209B mouse-scFv-mcSA414 (3.7 µM), 25° C., PBS
ROBO1 [3] = biological target: ROBO1 (UniProt Q9Y6N7); assay: ITC, one-site model (OneSites): ROBO1 injected into B5209B mouse-scFv-mcSA414 (3.7 uM) at 25 C in PBS
ROBO1 [4] = biological target: ROBO1 (UniProt Q9Y6N7); assay: ITC, ROBO1 titrated into B5209B mouse-scFv-mcSA414 (3.7 µM), 25° C., PBS; ITC, 25 C, PBS, ROBO1 titrated into the scFv-mcSA414 tetramer (3.7 uM)

reduction in affinity compared with scFV (ROBO1 [1]): 10 fold
ΔS value relative to scFV (ratio to scFV) (ROBO1 [1]): 0.025
binding ratio (molecules of ROBO1 per tetramer) (ROBO1 [2]): 2
enthalpy change (ΔH) (ROBO1 [2]): -3.85 kcal/mol
entropy change (ΔS) (ROBO1 [2]): -22 J/mol·K
N (fitted stoichiometry, ROBO1 per scFv-mcSA414 in the cell) (ROBO1 [3]): 0.334
Kd (ROBO1 [4]): 33 nM
B1: B5209B mouse-scFv-mcSA414 (protein)
chain: MAEVQLVESGGGVVQPGGSLKLSCAASGFTFSTYDMSWVRQTPDKRLELVATINSNGGSTYYPDSVKGRFTSSRDNAKNILYLQMSSLKSEDTAMYYCAREALLRPPYYALDYWGQGTSVTVSSAGGGGSGGGGSGGGGSDILDIQMTQSPASLSASVGETVTITCGASENIYGALTWYQRKQGKSPQLLIYGAINLADDKSSRFSGSGSGRQYSLKISSLHPDDVATYYCQNVLSTPFTFGSGTKLEIKAAGSSGSGSAAEAGITGTWSNQLGSTFIVTAGADGALTGTYESAVGNAESRYVLTGRYDSAPATDGSGTALGWTVAWKNNSKNAHSATTWSGQYVGGADAKINTQWLLTSGTTQANAWKSTLVGHDTFTKVKPSAASGARHHHHHH
